Assay results: FireProtDB (doi:10.1006/jmbi.1993.1508)

B1: Ribonuclease, P00648 (parent)
chain: MMKMEGIALKKRLSWISVCLLVLVSAAGMLFSTAAKTETSSHKAHTEAQVINTFDGVADYLQTYHKLPDNYITKSEAQALGWVASKGNLADVAPGKSIGGDIFSNREGKLPGKSGRTWREADINYTSGFRNSDRILYSSDWLIYKTTDHYQTFTKIR

Variants of: B1
Settings: Bacillus amyloliquefaciens; pH 6.3; 25 °C; Urea; Fluorescence; MES 50 mM; reversible: yes; structure 1BNI; whole UniProt chain shown

| Variant | ddG of mutation (higher = less stable) [kcal/mol] | denaturant m value [kcal/mol/M] | denaturant midpoint (higher = more stable) [M] | unfolding free energy [kcal/mol] |
| --- | --- | --- | --- | --- |
| MMKMEGIALKKRLSWISVCLLVLVSAAGMLFSTAAKTETSSHKAHTEAQVINTFDGVADYLQTYHKLPDNYITKSEAQALGWVASKGNLADVAPGKSIGGDIFSNREGKLPGKSGRTWREADINYVSGFRNSDRILYSSDWLIYKTTDHYQTFTKIR [T126V] | -0.18 | 1.91 | 4.7 | 9 |
| MMKMEGIALKKRLSWISVCLLVLVSAAGMLFSTAAKTETSSHKAHTEAQVINTFDGVADYLIRYHRLPDNYITKSEAQALGWVASKGNLADVAPGKSIGGDIFSNREGKLPSASGRTWREADINYTSGFRNSDRILYSSDWLIYKTTDHYQTFTRIR [Q62I T63R K66R G112S K113A K155R] | -2.98 | 1.86 | 6.34 | 11.8 |
| MMKMEGIALKKRLSWISVCLLVLVSAAGMLFSTAAKTETSSHKAHTEAQVINTFDGVADYLQTYHKLPDNYITKSEAQALGWVASKGNLADVAPGKSIGGDIFSNREGKLPGKSGRTWREADINYTSGFRNADRILYSSDWLIYKTTDHYQTFTKIR [S132A] | -0.28 | 2.02 | 4.51 | 9.1 |
| MMKMEGIALKKRLSWISVCLLVLVSAAGMLFSTAAKTETSSHKAHTEAQVINTFDGVADYLQTYHKLPDNYITKSEAQALGWVASKGNLAEVAPGKSIGGDIFSNREGKLPGKSGRTWREADINYTSGFRNSDRILYSSDWLIYKTTDHYQTFTKIR [D91E] | 0.32 | 1.84 | 4.6 | 8.5 |
| MMKMEGIALKKRLSWISVCLLVLVSAAGMLFSTAAKTETSSHKAHTEAQVINTFDGVADYLQRYHKLPDNYITKSEAQALGWVASKGNLADVAPGKSIGGDIFSNREGKLPGKSGRTWREADINYTSGFRNSDRILYSSDWLIYKTTDHYQTFTKIR [T63R] | -0.78 | 1.98 | 4.8 | 9.6 |
| MMKMEGIALKKRLSWISVCLLVLVSAAGMLFSTAAKTETSSHKAHTEAQVINTFDGVADYLQTYKKLPDNYITKSEAQALGWVASKGNLADVAPGKSIGGDIFSNREGKLPGKSGRTWREADINYTSGFRNSDRILYSSDWLIYKTTDHYQTFTKIR [H65K] | 0.92 | 2 | 3.9 | 7.9 |
| MMKMEGIALKKRLSWISVCLLVLVSAAGMLFSTAAKTETSSHKAHTEAQVINTFDGVADYLQTYHKLPDNYITKSEAQALGWVASKGNLADVAPGKSIGGDIFSNREGKLPGKSGRTWREADINYTSGFRNSDRIVYSSDWLIYKTTDHYQTFTKIR [L136V] | 0.32 | 1.92 | 4.4 | 8.5 |
| MMKMEGIALKKRLSWISVCLLVLVSAAGMLFSTAAKTETSSHKAHTEAQVINTFDGVADYLQTYHKLPDNYITKSEAQALGWVASKGNLADVAPGKSIGGDIFSNREGKLPGASGRTWREADINYTSGFRNSDRILYSSDWLIYKTTDHYQTFTKIR [K113A] | -0.98 | 2.09 | 4.7 | 9.8 |
| MMKMEGIALKKRLSWISVCLLVLVSAAGMLFSTAAKTETSSHKAHTEAQVINTFDGVADYLITYHKLPDNYITKSEAQALGWVASKGNLADVAPGKSIGGDIFSNREGKLPGKSGRTWREADINYTSGFRNSDRILYSSDWLIYKTTDHYQTFTKIR [Q62I] | -1.38 | 2.02 | 5 | 10.2 |
| MMKMEGIALKKRLSWISVCLLVLVSAAGMLFSTAAKTETSSHKAHTEAQVINTFDGVADYLQTYHKLPDNYITKSEAQALGWVASKGNLADVAPGKSIGGDVFSNREGKLPGKSGRTWREADINYTSGFRNSDRILYSSDWLIYKTTDHYQTFTKIR [I102V] | 0.32 | 1.93 | 4.4 | 8.5 |
| MMKMEGIALKKRLSWISVCLLVLVSAAGMLFSTAAKTETSSHKAHTEAQVINTFDGVADYLQTYHKLPDNYITKSEAQALGWVASKGNLADVAPGKSIGGDIFSNREGKLPGKSGRTWREADINYTSGFRNSDRILYSSDWLIYKTTDHYQTFTRIR [K155R] | -0.78 | 1.91 | 5 | 9.6 |
| MMKMEGIALKKRLSWISVCLLVLVSAAGMLFSTAAKTETSSHKAHTEAQVINTFDGVADYLQTYHRLPDNYITKSEAQALGWVASKGNLADVAPGKSIGGDIFSNREGKLPGKSGRTWREADINYTSGFRNSDRILYSSDWLIYKTTDHYQTFTKIR [K66R] | -0.88 | 2.08 | 4.6 | 9.7 |
| MMKMEGIALKKRLSWISVCLLVLVSAAGMLFSTAAKTETSSHKAHTEAQVINTFDGVADYLQTYHKLPDNYITKSEAQALGWVASKGNLADVAPGKSIGGDIFSNREGKLPSKSGRTWREADINYTSGFRNSDRILYSSDWLIYKTTDHYQTFTKIR [G112S] | -0.98 | 2.03 | 4.8 | 9.8 |
| MMKMEGIALKKRLSWISVCLLVLVSAAGMLFSTAAKTETSSHKAHTEAQVINTFDGVADYLQTYHKLPDNYITKSEASALGWVASKGNLADVAPGKSIGGDIFSNREGKLPGKSGRTWREADINYTSGFRNSDRILYSSDWLIYKTTDHYQTFTKIR [Q78S] | -0.28 | 2.05 | 4.4 | 9.1 |
| MMKMEGIALKKRLSWISVCLLVLVSAAGMLFSTAAKTETSSHKAHTEAQVINTFDGVADYLIRYHRLPDNYITKSEAQALGWVASKGNLADVAPGKSIGGDIFSNREGKLPGKSGRTWREADINYTSGFRNSDRILYSSDWLIYKTTDHYQTFTKIR [Q62I T63R K66R] | -1.98 | 2 | 5.42 | 10.8 |
| MMKMEGIALKKRLSWISVCLLVLVSAAGMLFSTAAKTETSSHKAHTEAQVINTFDGVADYLQTYHKLPDNYITKSEAQALGWVASKGNLADVAPGKSIGGDIFSNREGKLPGKSGRTWREADINYTSGFRNSDRILYSSDWLIYKTTDHYATFTKIR [Q151A] | 0.02 | 1.98 | 4.4 | 8.8 |
| MMKMEGIALKKRLSWISVCLLVLVSAAGMLFSTAAKTETSSHKAHTEAQVINTFDGVADYLQTYHKLPDNYITKSEAQALGWVASKGNLADVAPGKSIGGDIFSNREGRLPGKSGRTWREADINYTSGFRNSDRILYSSDWLIYKTTDHYQTFTKIR [K109R] | 0.02 | 2.04 | 4.3 | 8.8 |
| MMKMEGIALKKRLSWISVCLLVLVSAAGMLFSTAAKTETSSHKAHTEAQVINTFDGVADYLQTYHKLPDNYITKSEAQALGWVASKGNLADVAPGKSIGGDIFSNREGKLPGKSGRTWREADINYTSGFRNSDRLLYSSDWLIYKTTDHYQTFTKIR [I135L] | 0.02 | 1.98 | 4.4 | 8.8 |
